# Test results as given in article PMC11969024 (2025).
# B1: peptide HD2 (from tick evasin EVA4) / CCL11 (biotinylated, synthetic) (parent complex)
# chain 1: EEDDYTAYAPLTCYFT
# chain 2: not shown
# Variants of: B1
row,Variant,enrichment
1,chain 1 T12S,-1.64 log2 (difference from the parental peptide)
2,chain 1 T12Y,-1.75 log2 (difference from the parental peptide)
3,chain 1 T12H,-1.8 log2 (difference from the parental peptide)
4,chain 1 T12W,-2.96 log2 (difference from the parental peptide)
5,chain 1 T12R,-3.61 log2 (difference from the parental peptide)
6,chain 1 T12V,-0.494 log2 (difference from the parental peptide)
7,chain 1 T12L,-0.794 log2 (difference from the parental peptide)
8,chain 1 T12D,-2.24 log2 (difference from the parental peptide)
9,chain 1 T12I,-1.03 log2 (difference from the parental peptide)
10,chain 1 T12C,-6.12 log2 (difference from the parental peptide)
11,chain 1 T12M,-1.76 log2 (difference from the parental peptide)
12,chain 1 T12G,-9.29 log2 (difference from the parental peptide)
13,chain 1 T12E,-1.39 log2 (difference from the parental peptide)
14,chain 1 T12N,-0.967 log2 (difference from the parental peptide)
15,chain 1 L11K,-0.948 log2 (difference from the parental peptide)
16,chain 1 L11G,-5.15 log2 (difference from the parental peptide)
17,chain 1 L11E,-2.74 log2 (difference from the parental peptide)
18,chain 1 L11C,1.22 log2 (difference from the parental peptide)
19,chain 1 L11M,2.06 log2 (difference from the parental peptide)
20,chain 1 L11H,0.483 log2 (difference from the parental peptide)
21,chain 1 L11W,-0.874 log2 (difference from the parental peptide)
22,chain 1 L11D,-6.85 log2 (difference from the parental peptide)
23,chain 1 L11A,-0.668 log2 (difference from the parental peptide)
24,chain 1 L11F,-0.71 log2 (difference from the parental peptide)

row,Variant,enrichment
1,chain 1 L11P,-8.67 log2 (difference from the parental peptide)
2,chain 1 P10E,-7.48 log2 (difference from the parental peptide)
3,chain 1 P10W,-7.42 log2 (difference from the parental peptide)
4,chain 1 E1H,-1.51 log2 (difference from the parental peptide)
5,chain 1 E1W,-3.15 log2 (difference from the parental peptide)
6,chain 1 E1Y,-1.08 log2 (difference from the parental peptide)
7,chain 1 E1N,-0.236 log2 (difference from the parental peptide)
8,chain 1 E1L,-1.42 log2 (difference from the parental peptide)
9,chain 1 E1D,2.04 log2 (difference from the parental peptide)
10,chain 1 E1M,-0.0601 log2 (difference from the parental peptide)
11,chain 1 E1P,-1 log2 (difference from the parental peptide)
12,chain 1 E1K,-2.4 log2 (difference from the parental peptide)
13,chain 1 E1I,-0.709 log2 (difference from the parental peptide)
14,chain 1 E1Q,-0.591 log2 (difference from the parental peptide)
15,chain 1 E2N,-2.1 log2 (difference from the parental peptide)
16,chain 1 E2P,-2.92 log2 (difference from the parental peptide)
17,chain 1 E2S,-1.71 log2 (difference from the parental peptide)
18,chain 1 E2M,-1.91 log2 (difference from the parental peptide)
19,chain 1 E2K,-3.4 log2 (difference from the parental peptide)
20,chain 1 E2Q,-1.08 log2 (difference from the parental peptide)
21,chain 1 Y14Q,-4.82 log2 (difference from the parental peptide)
22,chain 1 Y14S,-5.39 log2 (difference from the parental peptide)
23,chain 1 Y14W,-0.519 log2 (difference from the parental peptide)
24,chain 1 Y14A,-6.29 log2 (difference from the parental peptide)

row,Variant,enrichment
1,chain 1 Y14G,-8.75 log2 (difference from the parental peptide)
2,chain 1 Y14C,-5.72 log2 (difference from the parental peptide)
3,chain 1 Y14H,-2.21 log2 (difference from the parental peptide)
4,chain 1 Y14K,-7.74 log2 (difference from the parental peptide)
5,chain 1 Y14I,-2.68 log2 (difference from the parental peptide)
6,chain 1 Y14L,-3.46 log2 (difference from the parental peptide)
7,chain 1 Y14N,-4.02 log2 (difference from the parental peptide)
8,chain 1 Y14M,-2.62 log2 (difference from the parental peptide)
9,chain 1 C13W,-7.9 log2 (difference from the parental peptide)
10,chain 1 C13L,-6.8 log2 (difference from the parental peptide)
11,chain 1 C13G,-8.69 log2 (difference from the parental peptide)
12,chain 1 C13P,-6.72 log2 (difference from the parental peptide)
13,chain 1 C13N,-8.78 log2 (difference from the parental peptide)
14,chain 1 C13E,-8.19 log2 (difference from the parental peptide)
15,chain 1 C13T,-6.48 log2 (difference from the parental peptide)
16,chain 1 C13I,-6.17 log2 (difference from the parental peptide)
17,chain 1 C13F,-7.62 log2 (difference from the parental peptide)
18,chain 1 C13V,-5.2 log2 (difference from the parental peptide)
19,chain 1 T16E,2.21 log2 (difference from the parental peptide)
20,chain 1 T16I,0.443 log2 (difference from the parental peptide)
21,chain 1 T16M,0.752 log2 (difference from the parental peptide)
22,chain 1 T16G,1.39 log2 (difference from the parental peptide)
23,chain 1 T16P,1.77 log2 (difference from the parental peptide)
24,chain 1 T16N,0.695 log2 (difference from the parental peptide)

row,Variant,enrichment
1,chain 1 T16V,0.462 log2 (difference from the parental peptide)
2,chain 1 T16S,1.18 log2 (difference from the parental peptide)
3,chain 1 D3K,-4.93 log2 (difference from the parental peptide)
4,chain 1 D3A,-2.56 log2 (difference from the parental peptide)
5,chain 1 D3Y,-0.781 log2 (difference from the parental peptide)
6,chain 1 D3F,-1.93 log2 (difference from the parental peptide)
7,chain 1 D3H,-2.18 log2 (difference from the parental peptide)
8,chain 1 D3V,-3.65 log2 (difference from the parental peptide)
9,chain 1 D3G,-2.94 log2 (difference from the parental peptide)
10,chain 1 D3Q,-4.56 log2 (difference from the parental peptide)
11,chain 1 D3E,1.42 log2 (difference from the parental peptide)
12,chain 1 D3T,-2 log2 (difference from the parental peptide)
13,chain 1 D3N,-2.05 log2 (difference from the parental peptide)
14,chain 1 D3R,-4.57 log2 (difference from the parental peptide)
15,chain 1 A7L,0.532 log2 (difference from the parental peptide)
16,chain 1 A7K,1.27 log2 (difference from the parental peptide)
17,chain 1 A7I,-0.213 log2 (difference from the parental peptide)
18,chain 1 A7D,2.81 log2 (difference from the parental peptide)
19,chain 1 A7H,-0.338 log2 (difference from the parental peptide)
20,chain 1 A7Q,2.3 log2 (difference from the parental peptide)
21,chain 1 T6R,-0.866 log2 (difference from the parental peptide)
22,chain 1 T6Y,-1.69 log2 (difference from the parental peptide)
23,chain 1 T6K,-1.28 log2 (difference from the parental peptide)
24,chain 1 T6V,-3.9 log2 (difference from the parental peptide)

row,Variant,enrichment
1,chain 1 T6W,-0.511 log2 (difference from the parental peptide)
2,chain 1 T6S,2.88 log2 (difference from the parental peptide)
3,chain 1 T6F,-4.68 log2 (difference from the parental peptide)
4,chain 1 T6A,1.96 log2 (difference from the parental peptide)
5,chain 1 T6Q,0.834 log2 (difference from the parental peptide)
6,chain 1 T6G,2.76 log2 (difference from the parental peptide)
7,chain 1 T6P,-4.98 log2 (difference from the parental peptide)
8,chain 1 T6H,-0.677 log2 (difference from the parental peptide)
9,chain 1 D4H,-5.76 log2 (difference from the parental peptide)
10,chain 1 D4M,-3.45 log2 (difference from the parental peptide)
11,chain 1 D4V,-4.79 log2 (difference from the parental peptide)
12,chain 1 Y8C,-9.26 log2 (difference from the parental peptide)
13,chain 1 Y8L,-9.35 log2 (difference from the parental peptide)
14,chain 1 Y8S,-6.51 log2 (difference from the parental peptide)
15,chain 1 Y8M,-6.75 log2 (difference from the parental peptide)
16,chain 1 Y8F,1.62 log2 (difference from the parental peptide)
17,chain 1 Y8I,-9.96 log2 (difference from the parental peptide)
18,chain 1 Y5E,0.188 log2 (difference from the parental peptide)
19,chain 1 Y5V,-5.26 log2 (difference from the parental peptide)
20,chain 1 Y5C,-5.28 log2 (difference from the parental peptide)
21,chain 1 Y5P,-7.31 log2 (difference from the parental peptide)
22,chain 1 Y5T,-4.78 log2 (difference from the parental peptide)
23,chain 1 Y5L,-2.37 log2 (difference from the parental peptide)
24,chain 1 Y5W,1.88 log2 (difference from the parental peptide)

row,Variant,enrichment
1,chain 1 Y5I,-4.75 log2 (difference from the parental peptide)
2,chain 1 F15E,0.713 log2 (difference from the parental peptide)
3,chain 1 F15M,0.54 log2 (difference from the parental peptide)
4,chain 1 F15R,-3.27 log2 (difference from the parental peptide)
5,chain 1 F15Q,-0.31 log2 (difference from the parental peptide)
6,chain 1 F15A,0.737 log2 (difference from the parental peptide)
7,chain 1 F15Y,0.26 log2 (difference from the parental peptide)
8,chain 1 F15T,1.13 log2 (difference from the parental peptide)
9,chain 1 F15P,-0.525 log2 (difference from the parental peptide)
10,chain 1 F15I,0.05 log2 (difference from the parental peptide)
11,chain 1 F15D,-0.00314 log2 (difference from the parental peptide)
12,chain 1 F15L,0.0745 log2 (difference from the parental peptide)
13,chain 1 A9Q,-0.313 log2 (difference from the parental peptide)
14,chain 1 A9F,-8.22 log2 (difference from the parental peptide)
15,chain 1 A9I,-10.6 log2 (difference from the parental peptide)
16,chain 1 A9N,-5.15 log2 (difference from the parental peptide)
17,chain 1 A9T,-3.11 log2 (difference from the parental peptide)
18,chain 1 A9W,-5.62 log2 (difference from the parental peptide)
19,chain 1 A9H,-4.7 log2 (difference from the parental peptide)
20,chain 1 A9P,-8.38 log2 (difference from the parental peptide)
